According to US20260078190A1 (SYSTIMMUNE, published 2026):
Read-outs that look alike come from different tables or passages of the source. Values belong to the binder of their own block, whether it stands above or below them.

What was measured:
[1] = molecular target: T1, Her3 ECD (Sino Biological, 10201-H08H-10) (UniProt P21860 20-643); assay: BLI (BLItz), same tip after the EGFR step; second step Her3 ECD 200 nM, 120 s association, 60 s dissociation
T1 construct: extracellular domain; Bought reagent; also called Her3 extracellular domain

[2] = molecular target: T2, SI-2C1, dimeric EGFR ECD fused to rabbit Fc (UniProt P00533 25-645, limits assumed); assay: ELISA, plate coated with dimeric EGFR ECD-rabbit Fc (SI-2C1) at 3 µg/mL, antibody from 10 µg/mL in 3x dilutions, goat anti-human IgG-HRP, OD 450 nm
T2 construct: extracellular domain; Made in house; also called dimeric EGFR ECD reagent; not shown: rabbit Fc

[3] = molecular target: T1, Her3 ECD (Sino Biological, …); assay: BLI (BLItz), same tip after the EGFR step; second step Her3 ECD 200 nM, 120 s association, 60 s dissociation; remark: listed apart in the source
[4] = molecular target: T2, SI-2C1, dimeric EGFR ECD fused to …; assay: ELISA, plate coated with dimeric EGFR ECD-rabbit Fc (SI-2C1) at 3 µg/mL, antibody from 50 µg/mL in 3x dilutions, goat anti-human IgG-HRP, OD 450 nm
[5] = molecular target: T3, Extracellular domain (Met 1-Ser 645) of human EGFR with a C-terminal polyhistidine tag (human, UniProt P00533 25-645); assay: BLI (Octet Red96), antibody on anti-human Fc sensor, curve fit at EGFR 300 nM
T3 construct: range 1-645; also called EGFR protein; EGFR ECD; not shown: C-terminal polyhistidine tag

[6] = molecular target: T3, Extracellular domain (Met 1-Ser 645) of …; assay: BLI (Octet Red96), antibody on anti-human Fc sensor, curve fit at EGFR 11.1 nM
[7] = molecular target: T4, EGFR on A431 and FaDu tumor cells (UniProt P00533 25-1210, limits assumed); assay: flow cytometry titration on tumour cells (Fadu by the legend paragraph 18, A431 by Example 7 paragraph 83), PE anti-human IgG-Fc, geometric MFI; the table's head prints 'IC50 (nM)', Example 7 calls the values EC50 of binding; bispecific EGFR x Her3 on cells that carry both, the anti-Her3 curve (SI-1C1) stays near the baseline
T4 construct: whole, on cells; the cells are native tumor lines, not transfectants

[8] = molecular target: T5, Monomeric EGFR ECD (SI-2R4) (UniProt P00533 25-645, limits assumed); assay: ELISA on coated monomeric EGFR ECD (SI-2R4), detection through Her3 ECD rabbit IgG1 (SI-1R1); antibody after 7 days in 95% human serum at 37 C; Day 7 at 37 C, 95% human serum
T5 construct: extracellular domain; Coated antigen of the serum stability ELISA

[9] = molecular target: T5, Monomeric EGFR ECD (SI-2R4); assay: ELISA on coated monomeric EGFR ECD (SI-2R4), detection through Her3 ECD rabbit IgG1 (SI-1R1); antibody in 95% human serum, Day 7 at 55 C (degradation condition)
[10] = molecular target: T5, Monomeric EGFR ECD (SI-2R4); assay: ELISA on coated monomeric EGFR ECD (SI-2R4, 3 µg/mL), antibody after 3 days at 37 °C in 95% human serum, column 'Day 3 (37°C)'; M follows from the text, which gives the neighbouring 4.293e-010 as 429.3 pM
[11] = molecular target: T4, EGFR on A431 and FaDu tumor cells; assay: flow cytometry titration on tumour cells (A431 by the legend paragraph 19, FaDu by Example 7 paragraph 83), PE anti-human IgG-Fc, geometric MFI; the table's head prints 'IC50 (nM)', Example 7 calls the values EC50 of binding; bispecific EGFR x Her3 on cells that carry both, the anti-Her3 curve (SI-1C1) stays near the baseline
[12] = molecular target: T3, Extracellular domain (Met 1-Ser 645) of …; assay: BLI (Octet Red96), antibody on anti-human Fc sensor, curve fit at EGFR 100 nM
[13] = molecular target: T3, Extracellular domain (Met 1-Ser 645) of …; assay: BLI (Octet Red96), antibody on anti-human Fc sensor, curve fit at EGFR 33.3 nM
[14] = molecular target: T3, Extracellular domain (Met 1-Ser 645) of …; assay: BLI (Octet Red96), antibody on anti-human Fc sensor, average of the four curve fits
[15] = molecular target: T5, Monomeric EGFR ECD (SI-2R4); assay: ELISA on coated monomeric EGFR ECD (SI-2R4), detection through Her3 ECD rabbit IgG1 (SI-1R1) and anti-rabbit IgG-HRP; antibody in 95% human serum, Day 0; Day 0, 95% human serum

binding result [1]: binds | EC50 (read off the curve) [2]: ~0.2 nM
B1: SI-1X1 (bispecific antibody, human IgG1, kappa)
heavy: not shown
light: QSALTQPASVSGSPGQSITISCTGTSSDVGGYNFVSWYQQHPGKAPKLMIYDVSDRPSGVSDRFSGSKSGNTASLIISGLQADDEADYYCSSYGSSSTHVIFGGGTKLTVLRTVAAPSVFIFPPSDEQLKSGTASVVCLLNNFYPREAKVQWKVDNALQSGNSQESVTEQDSKDSTYSLSSTLTLSKADYEKHKVYACEVTHQGLSSPVTKSFNRGEC
notes: Tetravalent: anti-HER3 IgG1 with anti-EGFR scFv on the heavy chain C-terminus (heavy chain entry holds IgG1 heavy chain, connector and scFv)

binding result [3]: binds
B2: SI-1X3 (bispecific antibody, human IgG1, kappa)
heavy: not shown
light: B1 light
notes: Tetravalent: anti-HER3 IgG1 with anti-EGFR (1C5) scFv on the heavy chain C-terminus

binding result [1]: binds | EC50 (read off the curve) [2]: ~0.03 nM
B3: SI-1C4 (bispecific antibody, human IgG1, kappa, V domains shown)
VH: EVQLVESGGGLVQPGGSLRLSCAASGFTLSGDWIHWVRQAPGKGLEWVGEISAAGGYTDYADSVKGRFTISADTSKNTAYLQMNSLRAEDTAVYYCARESRVSFEAAMDYWGQGTLVTVSS
VL: DIQMTQSPSSLSASVGDRVTITCRASQNIATDVAWYQQKPGKAPKLLIYSASFLYSGVPSRFSGSGSGTDFTLTISSLQPEDFATYYCQQSEPEPYTFGQGTKVEIKR
notes: Control: two-in-one bispecific antibody against EGFR and HER3 (Schaefer et al. 2011 platform); also called IC4; benchmark antibody

EC50 (read off the curve) [4]: ~5 nM | binding result [3]: binds
B4: SI-1X4 (bispecific antibody, human IgG1, kappa)
heavy: not shown
light: DIQMTQSPSSLSASVGDRVTITCRSSQNIVHSNGNTYLDWYQQTPGKAPKLLIYKVSNRFSGVPSRFSGSGSGTDFTFTISSLQPEDIATYYCFQYSHVPWTFGQGTKLQITRTVAAPSVFIFPPSDEQLKSGTASVVCLLNNFYPREAKVQWKVDNALQSGNSQESVTEQDSKDSTYSLSSTLTLSKADYEKHKVYACEVTHQGLSSPVTKSFNRGEC
notes: Tetravalent: anti-EGFR (1C5) IgG1 with anti-HER3 scFv on the heavy chain C-terminus

Kd [5]: 36.9 nM | koff [5]: 0.00171 s⁻¹ | kon [5]: 46300 M⁻¹ s⁻¹ | Kd [6]: 6.19 nM | koff [6]: 0.00135 s⁻¹ | kon [6]: 218000 M⁻¹ s⁻¹ | EC50 [7]: 4.02 nM | EC50 [8]: 0.467 nM | EC50 [9]: 4.25 nM | EC50 [10]: 0.509 nM | EC50 [11]: 2.28 nM | Kd [12]: 21 nM | koff [12]: 0.00165 s⁻¹ | kon [12]: 78800 M⁻¹ s⁻¹ | Kd [13]: 9.44 nM | koff [13]: 0.00149 s⁻¹ | kon [13]: 158000 M⁻¹ s⁻¹ | Kd [14]: 18.4 nM | koff [14]: 0.00155 s⁻¹ | kon [14]: 125000 M⁻¹ s⁻¹ | EC50 [15]: 0.429 nM
B5: SI-1X4.2 (bispecific antibody)
heavy: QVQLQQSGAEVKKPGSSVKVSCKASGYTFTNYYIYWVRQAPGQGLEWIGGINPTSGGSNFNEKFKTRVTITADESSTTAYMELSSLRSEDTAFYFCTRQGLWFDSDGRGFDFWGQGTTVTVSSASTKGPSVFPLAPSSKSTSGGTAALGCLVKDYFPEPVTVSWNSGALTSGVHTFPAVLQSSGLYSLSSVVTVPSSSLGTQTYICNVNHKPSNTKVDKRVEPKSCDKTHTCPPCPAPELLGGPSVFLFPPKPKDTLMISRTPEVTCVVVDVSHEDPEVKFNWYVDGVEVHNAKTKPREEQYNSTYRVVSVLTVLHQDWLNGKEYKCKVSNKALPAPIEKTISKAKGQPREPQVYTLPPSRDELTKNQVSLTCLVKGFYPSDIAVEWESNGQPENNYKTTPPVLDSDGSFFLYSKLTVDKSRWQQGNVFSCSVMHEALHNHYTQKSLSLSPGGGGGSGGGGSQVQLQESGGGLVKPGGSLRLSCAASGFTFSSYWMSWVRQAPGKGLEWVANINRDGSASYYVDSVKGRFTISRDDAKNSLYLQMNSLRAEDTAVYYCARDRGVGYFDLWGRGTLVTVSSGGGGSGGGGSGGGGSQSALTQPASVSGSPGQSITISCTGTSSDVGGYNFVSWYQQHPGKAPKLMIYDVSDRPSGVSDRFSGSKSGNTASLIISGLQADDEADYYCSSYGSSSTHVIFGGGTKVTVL
light: B4 light
notes: Tetravalent: anti-EGFR (1C5.2) IgG1 with anti-HER3 scFv

EC50 (read off the curve) [4]: ~5 nM
B6: SI-1C5 (antibody, human IgG1, kappa, V domains shown)
VH: QVQLQQSGAEVKKPGSSVKVSCKASGYTFTNYYIYWVRQAPGQGLEWIGGINPTSGGSNFNEKFKTRVTITVDESTNTAYMELSSLRSEDTAFYFCARQGLWFDSDGRGFDFWGQGSTVTVSS
VL: DIQMTQSPSSLSASVGDRVTITCRSSQNIVHSNGNTYLDWYQQTPGKAPKLLIYKVSNRFSGVPSRFSGSGSGTDFTFTISSLQPEDIATYYCFQYSHVPWTFGQGTKLQITR
notes: Monospecific anti-EGFR IgG1 kappa
